B1: RING finger protein 11 (Homo sapiens), Q9Y3C5 (parent)
chain: MGNCLKSPTSDDISLLHESQSDRASFGEGTEPDQEPPPPYQEQVPVPVYHPTPSQTRLATQLTEEEQIRIAQRIGLIQHLPKGVYDPGRDGSEKKIRECVICMMDFVYGDPIRFLPCMHIYHLDCIDDWLMRSFTCPSCMEPVDAALLSSYETN
partner: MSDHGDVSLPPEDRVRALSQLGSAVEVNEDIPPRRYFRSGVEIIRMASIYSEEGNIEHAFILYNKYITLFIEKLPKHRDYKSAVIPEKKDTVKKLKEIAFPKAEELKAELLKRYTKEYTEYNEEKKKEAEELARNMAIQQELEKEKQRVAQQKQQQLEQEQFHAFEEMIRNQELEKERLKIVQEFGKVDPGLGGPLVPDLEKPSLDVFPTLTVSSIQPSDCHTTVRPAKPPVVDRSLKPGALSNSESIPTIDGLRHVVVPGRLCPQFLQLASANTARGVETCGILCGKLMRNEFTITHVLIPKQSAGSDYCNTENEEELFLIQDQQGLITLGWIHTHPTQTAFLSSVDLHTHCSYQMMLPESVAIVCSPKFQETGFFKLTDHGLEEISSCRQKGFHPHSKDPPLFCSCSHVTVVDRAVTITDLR

Variants of: B1
Conditions: with stabp_human STAMBP

| Variant | effect of a mutation on the interaction |
| --- | --- |
| MGNCLKSPTSDDISLLHESQSDRASFGEGTEPDQEPPPPYQEQVPVPVYHPTPSQTRLATQLTEEEQIRIAQRIGLIQHLPKGVYDPGRDGSEKKIREAVICMMDFVYGDPIRFLPCMHIYHLDCIDDWLMRSFTCPSCMEPVDAALLSSYETN [C99A] | decreasing interaction |

From IntAct's records for PubMed 14755250
